According to US20260102527A1 (VRIJE UNIVERSITEIT BRUSSEL, published 2026):

Assays:
[1] = target: T1, recombinant hCD8αβ protein (R&D systems) (human, UniProt P01732 22-182; P10966 22-170); test: equilibrium binding ELISA, coated hCD8αβ protein
T1 construct: Bought protein; they are tied to this reagent by name only; also called human CD8 protein; human CD8β protein
Method: (§1) Wells of a 96 well MicroWell MaxiSorp flat bottom plate (Thermo Fisher Scientific) were coated with 0.2 μg of recombinant hCD8αβ protein, 0.2 μg of cynomolgus CD8β-Fc protein (Sino Biologicals) or PBS overnight at 4° C. The next day, wells were washed 3 times with PBS-T (PBS+0.05% Tween20 (Merck-Millipore, Burlington, MA, USA). Next, wells were blocked with blocking buffer (2% Skimmed milk (Regilait) in PBS) for 1 h at room temperature (RT). Different concentrations of single domain antibodies, diluted in blocking buffer, were added to the wells and incubated for 1 h at RT. Single domain antibody binding was detected using a mouse-anti-HA antibody (1:2000, clone 16B12, Biolegend) and alkaline-phosphatase conjugated goat-anti-mouse antibody (1:200, clone A90-116AP, Bethyl Laboratories, Montgomery, TX, USA). Wells were washed 5 times with PBS-T between all incubation steps. Binding was determined using p-nitrophenyl phosphate (2 mg/ml resuspended in AP blot buffer (12.12 g/L Trizma base, 10.17 g MgCl2·6H20/L, 5.84 g/L NaCl); Thermo Fisher Scientific). Absorbance at 405 nm was measured via a VersaMax ELISA Microplate Reader, using the SoftMax® Pro software (Molecular Devices, San Jose, CA, USA).

[2] = target: T2, human CD8α on CD3- CD56+ NK cells (express hCD8α but not hCD8β) (human, UniProt P01732 22-235); test: flow cytometry on primary NK cells, anti-HA detection
T2 construct: whole, on cells; also called cell-exposed CD8a

[3] = target: T1, recombinant hCD8αβ protein (R&D systems); test: SPR, Biacore T200, sdAb injected 250 to 1 nM, 25 °C, 1:1 fit
Method: The affinity of purified anti-hCD8β single domain antibodies to recombinant hCD8αβ protein (R&D systems, Minneapolis, MN, USA) was determined using the BIACORE-T200 device (Cytiva, Freiburg, Germany). Surface plasmon resonance measurements were performed at 25° C. with HEPES buffered saline (HBS, 20 mM of HEPES pH 7.4, 150 mM of NaCl, 3.4 mM of EDTA 0.05% Tween-20) running buffer. The single domain antibodies were injected consecutively in 2-fold serial dilutions, from 250 to 1 nM. The association step was 100 s, the dissociation step was 200 s, and the two-step regeneration of 35 s at 30 μL·min-1, using 100 mM glycine at pH 3.0, was performed. Local curve fitting analysis was performed using the BIACORE evaluation software (Cytiva) by fitting the obtained sensorgrams to theoretical curves, assuming 1-1 binding geometries. For the determination of the equilibrium dissociation constant, the ratio of the association and dissociation rate constants was determined.

[4] = target: T3, human CD8 (CD8αβ) on cells: SUP-T1 T cell lymphoma cells and primary human CD8+ T cells (human, UniProt P01732 22-235; P10966 22-210); test: flow cytometry on SUP-T1 cells, anti-HA detection
T3 construct: whole, on cells; SUP-T1 endogenously expresses human CD8; primary T cells came from healthy donors; The sdAbs are directed to the CD8β chain; also called SUP-T1 cells; primary CD8+ T cells
Method: Serial dilutions of anti-hCD8β single domain antibodies were incubated with 500.000 SUP-T1 cells in FACS buffer (HBSS (Gibco, Thermo Fisher Scientific) supplemented with 1% FBS and 2 mM EDTA (Duchefa Biochemie, Haarlem, The Netherlands)) for 1 h at 4° C. Cells were washed once with FACS buffer. Next, single domain antibody binding was detected by incubation of the cells with an Alexa Fluor®-488 tagged anti-HA antibody (1:1000 in FACS buffer, clone 16B12, Biolegend, San Diego, CA, USA) for 30 min at 4° C. Again, cells were washed once with FACS buffer. Single domain antibody binding was determined using the FACS CANTO II analyser (BD Biosciences, Franklin Lakes, NJ, USA). The mean fluorescence intensity of single domain antibody binding was determined using FlowJo version 10.

[5] = target: T4, cynomolgus CD8β-Fc protein (Sino Biologicals) (cynomolgus); test: equilibrium binding ELISA, coated cynomolgus CD8β-Fc
T4 construct: Bought protein; also called cynomolgus CD8β protein
Method: as §1

T1 sequence (P01732 22-182 limits assumed, chain 1 of 2): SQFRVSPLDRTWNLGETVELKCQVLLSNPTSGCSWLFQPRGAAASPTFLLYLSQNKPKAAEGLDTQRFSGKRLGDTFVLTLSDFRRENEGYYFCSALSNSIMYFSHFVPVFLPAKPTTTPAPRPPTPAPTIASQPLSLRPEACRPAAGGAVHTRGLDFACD
T1 sequence (P10966 22-170 limits assumed, chain 2 of 2): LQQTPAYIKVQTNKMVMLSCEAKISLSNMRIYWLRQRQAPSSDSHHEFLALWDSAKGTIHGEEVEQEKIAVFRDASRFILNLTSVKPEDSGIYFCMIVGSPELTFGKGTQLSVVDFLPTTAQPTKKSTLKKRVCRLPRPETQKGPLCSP
T3 sequence (P01732 22-235, chain 1 of 2): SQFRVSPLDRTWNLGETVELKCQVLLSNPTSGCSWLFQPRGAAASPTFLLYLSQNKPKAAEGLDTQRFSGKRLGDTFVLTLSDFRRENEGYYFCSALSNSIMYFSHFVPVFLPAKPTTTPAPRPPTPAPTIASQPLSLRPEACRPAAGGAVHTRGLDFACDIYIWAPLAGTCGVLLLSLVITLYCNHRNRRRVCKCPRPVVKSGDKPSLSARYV
T3 sequence (P10966 22-210, chain 2 of 2): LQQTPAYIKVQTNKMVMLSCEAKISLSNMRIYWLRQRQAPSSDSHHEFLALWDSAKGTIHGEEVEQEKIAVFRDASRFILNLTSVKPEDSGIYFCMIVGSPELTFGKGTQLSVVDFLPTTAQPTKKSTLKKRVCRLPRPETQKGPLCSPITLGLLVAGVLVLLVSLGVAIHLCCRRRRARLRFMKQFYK
T2 sequence (P01732 22-235): as the sequence (P01732 22-235, chain 1 of 2) above

B1: anti-human CD8β single domain antibody 22728 (VHH)
VHH: DVQLVESGGGLVQAGDSLRLSCVASGRTVSGGVMGWFRQAPGKGREFVASIKWESGRTYYVDSLKDGFTISRDSPKNTVYLQMTNLKPEDTAVYYCAAGIRVWQLSTLESTYDDWGQGTQVTVSS
notes: Llama-derived sdAb; detected through its C-terminal HA-tag in flow cytometry and ELISA; not shown: C-terminal HA-tag and His-tag (pMECS vector)
- Kd [1]: 2.9 nM
- binding result [2]: no binding (tested: 100 nM)
- Kd [3]: 2.6 nM
- Kd [4]: 2 nM
- Kd [5]: 1.7 nM

B2: anti-human CD8β single domain antibody 22772 (VHH)
VHH: DVQLVESGGGLVQPGGSLRLSCRASGHTFSDLSVGWFRRAPGKAREFVATTAWNGSIRYAESVKGRFTISRDNAANMMYLQMNSLKPEDTAIYYCAAAVGISYDYWGQGTQVTVSS
notes: detected through its C-terminal HA-tag; not shown: C-terminal HA-tag and His-tag (pMECS vector)
- Kd [1]: 3.5 nM
- Kd [3]: 5 nM
- Kd [4]: 16.8 nM
- Kd [5]: 1.6 nM

B3: anti-human CD8β single domain antibody 22719 (VHH)
VHH: DVQLVESGGGLVQAGGSLRLSCRASGHTFSDTAVGWFRRVPGKEREFVATIAGSGSIRYSESVKGRFTISGDNAKNMVYLQMNRLKPEDTGVYYCAAAVGISYDYWGQGTQVTVSS
notes: as for B1
- Kd [1]: 3.6 nM
- binding result [2]: no binding (tested: 100 nM)
- Kd [3]: 1 nM
- Kd [4]: 16 nM
- Kd [5]: 4.4 nM
